Laboratory results from patent publication US20220073907A1, “TAGLESS ENCODED CHEMICAL LIBRARY” (NANNA THERAPEUTICS LIMITED, priority 2016, published 2022).

B1: RNase T1: enzyme which cleaves its associated linker in a scarless manner; stock 10 mg/ml (protein, UniProt P00651 27-130, looked up)
Guanyl-specific ribonuclease …: ACDYTCGSNCYSSSDVSTAQAAGYQLHEDGETVGSNSYPHKYNNYEGFDFSVSSPYYEWPILSSGDVYSGGSPGADRVVFNENNQLAGVITHTGASGNNFVECT
B2: RNase A: enzyme which cleaves its associated RNA linker in a scarless manner; stock 10 mg/ml (protein, UniProt P61823 27-150, looked up)
Ribonuclease pancreatic: KETAAAKFERQHMDSSTSAASSSNYCNQMMKSRNLTKDRCKPVNTFVHESLADVQAVCSQKNVACKNGQTNCYQSYSTMSITDCRETGSSKYPNCAYKTTQANKHIIVACEGNPYVPVHFDASV

Legend:
[1] = test system: cleavable oligonucleotide; assay: Enzymatic release of BHQ-1 quencher from FITC-labelled cleavable oligonucleotide, denaturing gel; assay type: biochemical; conditions: 10-fold serial dilutions of stock enzyme from 10^−2 to 10^−5 in 10 mM Tris-HCl pH 7.5, 1 mM EDTA; 150 nM cleavable oligonucleotide
Excerpt: Referring now to FIG. 4, to show cleavage of the linker and release of the pharmacore oligonucleotides were made which incorporated a fluorophore (FITC, shown as F in FIG. 4) 5′ to the cleavable linker within the sequence of the cleavable oligonucleotide. A quencher molecule, BHQ-1, was then attached to the cleavable linker. This can be released by cleavage in the same manner as any chemical structure used in library generation. Light up of the oligonucleotide is seen when the quencher is removed from the cleavable linker.
Three different enzymes have been identified which cleave their associated linkers in a scarless manner (RNase A, RNase T1 A and RNase 1 A; labelled as enzymes A, B and C respectively in FIG. 4). All 3 were tested with their compatriot linkers. In each case 10 μl reactions were set up; 10 mM Tris-HCl, 1 mM EDTA, 150 nM cleavable oligonucleotide 0.1 μl of stock enzyme (RNase A=10 mg/ml, RNase T1=10 mg/ml RNase 1=1.5 mg/ml) then to 10 μl with nuclease free water. Samples were incubated for 15 minutes at 37° C. and then 10 μL denaturing loading dye added (95% formamide, 0.1% xylene cyanole, 0.1% Bromophenol Blue, 20 mM Tris-HCl pH 7.5). Samples were boiled for 2 minutes at 95° C. and then rapidly cooled to 4° C. at 4° C./s. These samples were then loaded onto a denaturing TBE-gel (12.5% polyacrylamide, 7M Urea). The gel was run at 150V for 75 minutes and the imaged using a Syngene Ingenius3 system exciting the FITC. Release of the quencher means the fluorophore can be seen and imaged as ‘light up’. This is seen as appearance of yellow DNA band in the presence of enzyme. By staining with SyBr gold (Thermo) DNA can be seen and this is again quenched when quencher is present but the size shift corresponding to the change in mass can be seen as well as increased signal (grey scale image below fluorophore, FIG. 4). In both cases we can see release only occurs in the presence of the enzymes and is rapid (<15 minutes). […]

RNA guides = assay: RNaseA cleavage of RNA guides in growth media; assay type: biochemical
[2] = test system: cleavable oligonucleotide; assay: Enzymatic release of payload from cleavable linker in 100 μm aqueous droplets; assay type: biochemical; conditions: 10 μl stock RNase A (10 mg/ml) per 1 ml aqueous phase, 37° C. for 15 minutes, 100 μm droplets
Method: We also confirmed that the enzymes function in the droplet environment (see FIG. 5). Results are shown for RNase A. 1 ml of aqueous phase was set up using 10 mM Tris-HCl, 1 mM EDTA, 150 nM cleavable oligonucleotide 10 μl of stock RNase A (10 mg/ml) then to 1 ml with nuclease free water. Droplets of […] mean diameter were made using a 100 μm etch depth chip with the aqueous phase as described above and the oil phase comprising of PSF-2 cST oil (Clearco Products Inc.) with 2% w/v Gransurf G67 (Grant Industries Inc.) Droplets were incubated with and without enzyme at 37° C. for 15 minutes and them imaged under a Floid fluorescence microscope illuminating at 482/18 nm and emission filters of 532/59 nm.

Jurkat cells = assay: Effect of RNaseA in the cell mixture on cellular growth; assay type: cell-based; conditions: 0.1 μg/ml in the cell mixture
Excerpt: DNA guides assembly of monomers—were synthesised using conventional chemistry the RNA tags were synthesised in advance by IDT. The last 3 nucleotides contain phosphorothioate linkages to prevent cleavage by exonucleases. Individual reagents are then tagged with a guide to a specific RNA specific to a unique sequence incorporated into the guide oligonucleotide (100 unique monomers can be assembled, assuming up to 4 guide sequences into over 100,000,000 unique compounds). […] 1) Beads are packed into a column (each bead is clonal with a unique DNA sequence to guide assembly but μM concentrations of this clonal guide on each bead) and at 20 μM 200 million can be present per ml of bead volume. 2) A pool of monomers and appropriate reagents are then washed onto the column and reactions allowed to proceed, the column can be washed and new reaction chemistry added as needed (note fresh monomers can also be added). 3) Chemical synthesis varies with monomers used (see example 2, section 4). 4) Finally the beads are washed with 10 column volumes of TE with 100 mM NaCl and then 2 column volumes of appropriate media for growth of cells in the phenotypic screen e.g. RPMI. 5) Beads are then collected in the growth media and ready for encapsulation with target cells. […]

Molecule	dilution of the enzyme at which activity is seen [1]	duration of enzyme activity in growth media (RNA guides; 0.1 μg/ml, growth media tested)	time for cleavage of RNA guides (RNA guides; in RPMI, lysogeny broth, tryptic soy broth and DMEM)	light up (quencher release) in droplets [2]	effect on cellular growth (Jurkat cells)
RNase 1: enzyme which cleaves its associated linker in a scarless manner; stock 1.5 mg/ml	10^−3				
B1	10^−3				
B2	10^−4	at least 48 h	15 to 20 min	light up occurs in droplets in the presence of enzyme	doesn't affect cellular growth
